Reference: patent US20070160576A1, “IL-17A/F heterologous polypeptides and therapeutic uses thereof” (Genentech, Inc., priority 2001, published 2007)

B1: PRO21175 (IL-17D ligand) (ligand, UniProt Q8TAD2 16-202, looked up)
chain: AGAPRAGRRPARPRGCADRPEELLEQLYGRLAAGVLSAFHHTLQLGPREQARNASCPAGGRPADRRFRPPTNLRSVSPWAYRISYDPARYPRYLPEAYCLCRGCLTGLFGEEDVRFRSAPVYMPTVVLRRTPACAGGRSVYTEAYVTIPVGCTCVPEPEKDADSINSSIDKQGAKLLLGPNDAPAGP
B2: IL-17F: human IL-17F ligand, SEQ ID NO:4 (protein, listed as Homo sapiens)
chain: MTVKTLHGPAMVKYLLLSILGLAFLSEAAARKIPKVGHTFFQKPESCPPVPGGSMKLDIGIINENQRVSMSRNIESRSTSPWNYTVTWDPNRYPSEVVQAQCRNLGCINAQGKEDISMNSVPIQQETLVVRRKHQGCSVSFQLEKVLVTVGCTCVTPVIHHVQ
B3: PRO1122 (IL-17C ligand) (ligand, UniProt Q9P0M4 19-197, looked up)
chain: HHDPSLRGHPHSHGTPHCYSAEELPLGQAPPHLLARGAKWGQALPVALVSSLEAASHRGRHERPSATTQCPVLRPEEVLEADTHQRSISPWRYRVDTDEDRYPQKLAFAECLCRGCIDARTGRETAALNSVRLLQSLLVLRRRPCSRDGSGLPTPGAFAFHTEFIHVPVGCTCVLPRSV

What was measured:
[1] = biological target: T1, PRO5801 (human IL-17RH1 receptor) (Homo sapiens, UniProt Q9NRM6); assay: Receptor/ligand interaction screening assay (immunoadhesin); type: binding
T1 sequence (Q9NRM6 18-502): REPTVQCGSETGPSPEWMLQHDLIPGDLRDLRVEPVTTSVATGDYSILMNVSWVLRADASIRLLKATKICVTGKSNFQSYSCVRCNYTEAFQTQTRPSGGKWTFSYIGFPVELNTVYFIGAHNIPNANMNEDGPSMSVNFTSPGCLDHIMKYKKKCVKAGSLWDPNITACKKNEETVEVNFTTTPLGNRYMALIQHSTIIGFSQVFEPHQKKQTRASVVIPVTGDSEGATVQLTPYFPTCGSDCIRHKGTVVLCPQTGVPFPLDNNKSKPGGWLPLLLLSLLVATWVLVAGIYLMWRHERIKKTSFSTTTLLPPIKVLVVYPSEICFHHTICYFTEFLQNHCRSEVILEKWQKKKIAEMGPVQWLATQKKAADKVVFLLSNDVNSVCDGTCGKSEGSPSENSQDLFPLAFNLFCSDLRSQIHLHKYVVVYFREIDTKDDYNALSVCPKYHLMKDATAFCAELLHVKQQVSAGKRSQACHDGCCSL

[2] = biological target: T2, PRO20040 (human IL-17RH2 receptor) (human, UniProt Q8NAC3-3 21-452); assay: receptor/ligand screen, FIG. 14
T2 sequence (looked up): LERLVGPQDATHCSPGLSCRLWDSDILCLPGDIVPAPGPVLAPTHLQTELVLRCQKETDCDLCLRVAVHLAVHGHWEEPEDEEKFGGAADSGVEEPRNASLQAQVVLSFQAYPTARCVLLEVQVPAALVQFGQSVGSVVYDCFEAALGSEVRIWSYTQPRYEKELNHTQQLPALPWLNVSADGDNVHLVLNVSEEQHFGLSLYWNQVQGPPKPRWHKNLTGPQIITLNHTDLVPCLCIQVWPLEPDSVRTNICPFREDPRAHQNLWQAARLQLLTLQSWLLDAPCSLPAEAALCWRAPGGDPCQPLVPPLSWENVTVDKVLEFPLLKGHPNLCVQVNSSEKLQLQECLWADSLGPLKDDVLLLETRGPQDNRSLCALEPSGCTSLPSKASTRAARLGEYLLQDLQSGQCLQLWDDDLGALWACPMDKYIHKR
Description: A PRO polypeptide of the present invention suspected of being a ligand for a receptor is expressed as a fusion protein containing the Fc domain of human IgG (an immunoadhesin). Receptor-ligand binding is detected by allowing interaction of the immunoadhesin polypeptide with cells (e.g. Cos cells) expressing candidate PRO polypeptide receptors and visualization of bound immunoadhesin with fluorescent reagents directed toward the Fc fusion domain and examination by microscope. Cells expressing candidate receptors are produced by transient transfection, in parallel, of defined subsets of a library of cDNA expression vectors encoding PRO polypeptides that may function as receptor molecules. Cells are then incubated for 1 hour in the presence of the PRO polypeptide immunoadhesin being tested for possible receptor binding. The cells are then washed and fixed with paraformaldehyde. The cells are then incubated with fluorescent conjugated antibody directed against the Fc portion of the PRO polypeptide immunoadhesin (e.g. FITC conjugated goat anti-human-Fc antibody). The cells are then washed again and examined by microscope. A positive interaction is judged by the presence of fluorescent labeling of cells transfected with cDNA encoding a particular PRO polypeptide receptor or pool of receptors and an absence of similar fluorescent labeling of similarly prepared cells that have been transfected with other cDNA or pools of cDNA. If a defined pool of cDNA expression vectors is judged to be positive for interaction with a PRO polypeptide immunoadhesin, the individual cDNA species that comprise the pool are tested individually (the pool is “broken down”) to determine the specific cDNA that encodes a receptor able to interact with the PRO polypeptide immunoadhesin.
In another embodiment of this assay, an epitope-tagged potential ligand PRO polypeptide (e.g., 8 histidine “His” tag) is allowed to interact with a panel of potential receptor PRO polypeptide molecules that have been expressed as fusions with the Fc domain of human IgG (immunoadhesins). Following a 1 hour co-incubation with the epitope tagged PRO polypeptide, the candidate receptors are each immunoprecipitated with protein A beads and the beads are washed. Potential ligand interaction is determined by Western blot analysis of the immunoprecipitated complexes with antibody directed towards the epitope tag.

[3] = biological target: T3, Cos cells transfected with IL-17R (Homo sapiens, UniProt Q96F46); assay: Binding to Cos cells transfected with IL-17R; type: cell-based; settings: data not shown
T3 construct: expressed in transfected cells; host or cells: Cos cells

| Molecule | binding to IL-17RH1 receptor (PRO5801) [1] | binding result [2] | binding to Cos cells transfected with IL-17R [3] |
| --- | --- | --- | --- |
| B1 | do not interact | no binding | – |
| B2 | – | – | enhanced binding |
| B3 | do not interact | no binding | – |
